Experimental data taken from patent US20250277059A1, “ANTIBODY USED TO TREAT CORONAVIRUS INFECTION” (priority 2022, published 2025).

Key:
human TMPRSS2 [1] = target: T1, human TMPRSS2 (Homo sapiens, UniProt O15393); assay: BIACore binding assay of anti-TMPRSS2 antibodies; details: Table 1, mouse mAbs, 25° C.
Target sequence in this assay (O15393 106-492 limits assumed): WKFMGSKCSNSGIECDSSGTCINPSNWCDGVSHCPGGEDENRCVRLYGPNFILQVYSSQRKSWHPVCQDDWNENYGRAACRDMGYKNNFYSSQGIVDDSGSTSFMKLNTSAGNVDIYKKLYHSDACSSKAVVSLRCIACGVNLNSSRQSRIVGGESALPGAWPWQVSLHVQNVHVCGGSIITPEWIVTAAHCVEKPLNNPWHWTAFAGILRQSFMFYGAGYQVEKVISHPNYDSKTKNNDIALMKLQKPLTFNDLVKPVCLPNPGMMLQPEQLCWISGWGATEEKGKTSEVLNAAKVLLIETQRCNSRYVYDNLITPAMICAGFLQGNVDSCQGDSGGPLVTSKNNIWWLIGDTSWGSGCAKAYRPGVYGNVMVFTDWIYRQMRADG

human TMPRSS2 [2] = target: T1, human TMPRSS2; assay: Competitive inhibition between anti-TMPRSS2 mAbs (flow cytometry); format: binding; details: FIG. 3C
Target sequence in this assay (O15393 whole entry): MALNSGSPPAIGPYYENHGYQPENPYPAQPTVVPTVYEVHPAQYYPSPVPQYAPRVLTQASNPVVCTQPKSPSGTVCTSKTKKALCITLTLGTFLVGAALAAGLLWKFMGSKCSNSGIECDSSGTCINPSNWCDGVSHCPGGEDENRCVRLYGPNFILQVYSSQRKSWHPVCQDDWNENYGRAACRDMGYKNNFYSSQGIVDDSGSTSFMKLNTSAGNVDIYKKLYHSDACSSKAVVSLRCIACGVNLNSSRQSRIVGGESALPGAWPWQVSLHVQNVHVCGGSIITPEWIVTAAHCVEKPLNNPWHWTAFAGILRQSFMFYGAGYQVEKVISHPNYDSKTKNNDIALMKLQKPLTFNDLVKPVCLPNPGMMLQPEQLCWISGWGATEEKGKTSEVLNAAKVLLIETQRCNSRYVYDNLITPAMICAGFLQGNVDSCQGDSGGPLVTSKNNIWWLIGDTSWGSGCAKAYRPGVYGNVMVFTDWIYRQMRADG

[3] = test system: TMPRSS2 of non-human animal species; format: binding; details: Table 3; species whose TMPRSS2 is bound
TMPRSS-11F = TMPRSS-11F (human, UniProt Q6ZWK6); assay: ELISA, Strep-tagged protein on streptavidin plate
Sequence of TMPRSS-11F (Q6ZWK6 54-438 limits assumed): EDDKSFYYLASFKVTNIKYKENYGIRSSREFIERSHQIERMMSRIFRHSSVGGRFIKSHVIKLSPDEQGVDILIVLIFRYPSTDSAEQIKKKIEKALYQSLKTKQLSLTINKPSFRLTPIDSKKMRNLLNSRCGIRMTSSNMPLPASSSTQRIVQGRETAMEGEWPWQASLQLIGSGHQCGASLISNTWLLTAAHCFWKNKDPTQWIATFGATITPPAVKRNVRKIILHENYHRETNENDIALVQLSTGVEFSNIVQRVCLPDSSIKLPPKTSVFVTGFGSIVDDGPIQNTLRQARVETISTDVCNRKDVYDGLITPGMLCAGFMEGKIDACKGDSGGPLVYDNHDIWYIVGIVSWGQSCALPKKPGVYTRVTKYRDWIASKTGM

TMPRSS-11D = target: T2, TMPRSS-11D (human, UniProt O60235); assay: ELISA, Strep-tagged protein on streptavidin plate
T2 sequence (single chain, looked up): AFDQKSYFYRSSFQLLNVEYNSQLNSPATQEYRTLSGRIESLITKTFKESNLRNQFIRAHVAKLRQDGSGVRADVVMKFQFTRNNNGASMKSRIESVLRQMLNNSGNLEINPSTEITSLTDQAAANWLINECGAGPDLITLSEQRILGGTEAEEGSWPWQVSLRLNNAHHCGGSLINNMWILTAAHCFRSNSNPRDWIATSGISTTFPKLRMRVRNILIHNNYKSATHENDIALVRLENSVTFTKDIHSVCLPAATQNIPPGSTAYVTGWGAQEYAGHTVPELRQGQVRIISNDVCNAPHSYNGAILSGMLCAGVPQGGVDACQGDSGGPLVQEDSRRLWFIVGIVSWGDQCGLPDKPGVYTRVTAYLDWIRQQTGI

TMPRSS-13 = target: T3, TMPRSS-13 (human, UniProt Q9BYE2); assay: ELISA, Strep-tagged protein on streptavidin plate
T3 sequence (single chain, looked up): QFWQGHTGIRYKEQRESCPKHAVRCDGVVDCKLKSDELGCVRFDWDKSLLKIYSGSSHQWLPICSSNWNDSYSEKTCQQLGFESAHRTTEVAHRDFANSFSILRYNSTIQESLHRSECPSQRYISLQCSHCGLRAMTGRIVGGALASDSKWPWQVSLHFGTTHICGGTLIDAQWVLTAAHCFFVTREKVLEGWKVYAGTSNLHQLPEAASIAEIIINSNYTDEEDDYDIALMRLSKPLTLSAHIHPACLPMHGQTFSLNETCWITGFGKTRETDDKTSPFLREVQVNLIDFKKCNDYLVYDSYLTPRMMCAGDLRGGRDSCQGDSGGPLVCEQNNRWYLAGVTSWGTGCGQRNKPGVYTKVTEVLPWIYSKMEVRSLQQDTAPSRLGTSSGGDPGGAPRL

TMPRSS-11E = target: T4, TMPRSS-11E (human, UniProt Q9UL52); assay: ELISA, Strep-tagged protein on streptavidin plate
T4 sequence (single chain, looked up): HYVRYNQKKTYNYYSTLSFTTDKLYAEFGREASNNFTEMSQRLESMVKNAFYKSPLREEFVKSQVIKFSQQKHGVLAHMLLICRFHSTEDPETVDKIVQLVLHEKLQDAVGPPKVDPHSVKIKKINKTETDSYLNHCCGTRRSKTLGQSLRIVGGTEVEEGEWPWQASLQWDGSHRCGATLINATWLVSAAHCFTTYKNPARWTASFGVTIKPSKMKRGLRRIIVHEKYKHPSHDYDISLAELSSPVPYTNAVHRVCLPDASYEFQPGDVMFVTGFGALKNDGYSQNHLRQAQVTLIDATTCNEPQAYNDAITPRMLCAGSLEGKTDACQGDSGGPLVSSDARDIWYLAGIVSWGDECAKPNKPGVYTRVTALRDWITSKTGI

[4] = target: T5, Human TMPRSS2 recombinant protein, extracellular region (N-terminal His tag, C-terminal Strep-tag II) (human, UniProt O15393 106-492); assay: SPR (BIACore)
T5 construct: also called Human TMPRSS2 recombinant proteins; extracellular region of human TMPRSS2
T5 sequence (O15393 other isoform, or with tags, fused parts or gaps limits assumed): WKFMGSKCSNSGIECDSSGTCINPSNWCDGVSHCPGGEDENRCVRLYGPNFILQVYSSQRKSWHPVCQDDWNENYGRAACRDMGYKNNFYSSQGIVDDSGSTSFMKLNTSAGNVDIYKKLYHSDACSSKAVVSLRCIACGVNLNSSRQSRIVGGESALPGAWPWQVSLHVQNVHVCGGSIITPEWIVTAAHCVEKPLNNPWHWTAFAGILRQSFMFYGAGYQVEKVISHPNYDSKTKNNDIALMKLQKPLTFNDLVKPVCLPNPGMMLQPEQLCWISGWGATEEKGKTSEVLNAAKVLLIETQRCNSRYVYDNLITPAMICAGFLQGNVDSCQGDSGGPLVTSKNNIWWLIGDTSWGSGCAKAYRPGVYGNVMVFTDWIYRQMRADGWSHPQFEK

[5] = target: T6, Human TMPRSS2 expressed on cells (human, UniProt O15393 1-492)
T6 construct: also called TMPRSS2 expressing cells; Daudi-TMPRSS2 transfectant
T6 sequence (O15393 whole entry): as the sequence (O15393 whole entry) above

[6] = target: T5, Human TMPRSS2 recombinant protein, …; assay: SPR (BIAcore); rounded repeat of Table 1
[7] = target: T5, Human TMPRSS2 recombinant protein, …; assay: SPR (BIAcore), captured mAb, soluble human TMPRSS2 extracellular region

B1: 2114_16: mouse anti-human TMPRSS2 monoclonal antibody, IgG2c λ; VH SEQ ID NO: 106, VL SEQ ID NO: 107 (antibody, V domains shown)
VH: EVQLQQSGPELVKPGASVKISCKASGYTFTDYYMNWVKRRHGKSLEWIGNINPNNGGTSYNQKFKGKATLTVDKSSSTAYMELRSLTSEDSVVYYCAREGDLFPFAYWGQGTLVTVSA
VL: QAVVTQESALTTSPGETVTLTCRSSIGTVTTSNFANWVQEKPDHLFTGLIGASNNRAPGVPARFSGSLIGDKAALTITGAQTEDEAIYFCALWFSNHWVFGGGTKLTVL
modifications: mouse IgG2c lambda constant regions; 2114_16 VH; 2114_16 VL
ka (human TMPRSS2 [1]): 570000 M⁻¹ s⁻¹
kd (human TMPRSS2 [1]): 0.000591 s⁻¹
competition with 1831_15 antibody for binding to human TMPRSS2 (human TMPRSS2 [2]): weakly competed

B2: 1831_15: mouse anti-human TMPRSS2 monoclonal antibody, IgG2b κ; VH SEQ ID NO: 98, VL SEQ ID NO: 99 (antibody, V domains shown)
VH: QVQLQQPGAELVKPGASVKLSCKASGYSFTTYWMHWVRQRPGQGLEWIGIIHPNSGTTNYNEKFKSKASLTVDKSSSTAYMQLSSLTSEDSAVYYCARLLWDYFDYWGQGTTLTVSS
VL: DIVMSQSPSSLAVSAGEKVTMSCKSSQSLLNSRTRKNFLAWYQQKPGQSPKLLIYWASTRESGVPDRFTGSGSGTDFTLTISSVQAEDLAVYYCKQSYNLYTFGGGTKLEIK
modifications: mouse IgG2b kappa constant regions; 1831_15 VH; 1831_15 VL
ka (human TMPRSS2 [1]): 563000 M⁻¹ s⁻¹
kd (human TMPRSS2 [1]): 0.000236 s⁻¹
Cross-reactivity [3]: Cynomolgus monkey

B3: 752_1 antibody (antibody, V domains shown)
VH: QVQLQQSGAELARPGASVKLSCKASGYTFTSCGISWVKQRTGQGLEWIGEIYPRGGNTYYNEKFKGKATLTADKSSSTAYMELRSLTSEDSAVYFCARENGNYDPLFAYWGQGTLVTVSA
VL: DIQMTQSPSSLSASLGGKVTITCKASQDINKYIAWYQHKPGKGPRLLIHYTSTLQPGIPSRFSGSGSGRDYSFSIYNLEPEDIATYYCLQYYNLWTFGGGTKLEIK
binding result (TMPRSS-11F): no binding (tested: 10 µg/mL)
binding result (TMPRSS-11D): no binding (tested: 10 µg/mL)
binding result (TMPRSS-13): no binding (tested: 10 µg/mL)
binding result (TMPRSS-11E): no binding (tested: 10 µg/mL)

B4: humanized 2228-15 IgG4 (S108P) prototype #3 (antibody, V domains shown)
VH: EIQLVQSGAEVKKPGSSVKVSCKASGYTFTDYYINWMRQAPGQGLEWIGWIFPGSGSSYYNAIFKGRATLTVDTSTNTAYMELSSLRSEDTAFYFCARGDFGNFGGFFTYWGQGTLVTVSS
VL: DVVMTQSPLSLPVTLGQPASISCRASKSVSTSGYSFMHWFQQRPGQSPRRLIYLASNLESGVPDRFSGSGSGTDFTLKISRVEAEDVGVYYCQHSRELPLTFGGGTKVEIK
notes: also called humanized #3; hu #3
Kd [4]: 0.938 nM
koff [4]: 0.000774 s⁻¹
kon [4]: 825000 M⁻¹ s⁻¹
APC median at 3 µg/ml [5]: 862

B5: humanized 2228-15 IgG4 (S108P) prototype #4 (antibody, V domains shown)
VH: EIQLVQSGAEVKKPGSSVKVSCKASGYTFTDYYINWMRQAPGQGLEWIGWIFPGSGSSYYNAIFKGRATLTVDTSTNTAYMELSSLRSEDTAFYFCARGDFGNFGGFFTYWGQGTLVTVSS
VL: DIVMTQSPDSLAVSLGERATINCRASKSVSTSGYSFMHWYQQKPGQPPKLLIYLASNLESGVPDRFSGSGSGTDFTLTIRPLQAEDVAVYYCQHSRELPLTFGQGTKLEIK
notes: also called humanized #4; hu #4
koff [4]: 0.0001 s⁻¹
kon [4]: 1.44e+06 M⁻¹ s⁻¹
APC median at 3 µg/ml [5]: 1990

B6: 2228_15 antibody (antibody, V domains shown)
VH: QVQLQQSGPELVKPGTSVKISCKASGYTFTDYYINWVKQRPGQGLEWIGWIFPGSGSSYYNAIFKGKATLTVDTSSNTAHMSLSSLTSDDSAVYFCARGDFGNFGGFFTYWGQGTLVTVSA
VL: DVVVTQSPASLAVSLGQRATISCRASKSVSTSGYSFMHWYQQKPGQPPKLLIYLASNLESGVPARFSGSGSGTDFILNIHPVEEEDAATYYCQHSRELPLTFGAGTKLELK
Kd [6]: 8.4 nM
Kd [7]: 8.41 nM
binding result (TMPRSS-11F): no binding (tested: 10 µg/mL)
binding result (TMPRSS-11D): no binding (tested: 10 µg/mL)
binding result (TMPRSS-13): no binding (tested: 10 µg/mL)
binding result (TMPRSS-11E): no binding (tested: 10 µg/mL)
